Data published in the DeepSol protein solubility set.

Assay: soluble on expression in E. coli; label from the status in PepcDB or PDB records

Sequence | soluble on expression in E. coli
MGSDKIHHHHHHMANTPLLITLLPSSGVDLSRWLMAHYGVTYEERPHAPIFHVLALKSWGEGKDGYPLFVHADRTTKTVGCRKIAEFFDPSAPADKTLLPDPDAEPELAAQVDDIVKYSYWTIGGDVVNWSYWNFLKYKWVVWPSLTTKVPWYEKLTCLVAFRLIRFLMYKGLKLDQRVADASLKEILAGFDKFDAMLADGRPYLTGDRMTYADLATAAALGPMILAQGYHGMLPNQAKCPVFMQGIYQQLRQRPTGLFIQRMYDQHRPAQLLQI | not soluble
MGSDKIHHHHHHVKTNLEHWVTLQEKGYFENHPFYQERQVNDDAARVEKATPLTKDMKIAIIGCGYGRESASFCRRVRKVYGIDVSWTILAKALERMLADNHVNFTPVLASQWKTILPDGGLDLVYSVVVFQHLTRDLVDDYIGGLKGKLRPGGRFYVQFCDSDTGEADADLRFYEPNVRWTEDDIRILARRHGLDLLSLDSERVTPTASWHWALMEKADDR | not soluble
MAGVSTTQSGAIGVDRTQYMSSLVPEQALVQEAGQQYAEIVQEARAKGLLDRDPAQLSRVRAISQRLIAQTGVFRADAANWPWEVHVLSVDEVNAWCMPGGKIAVYTGLLAHIKPTDDELAAVLGHEIAHALREHARERVSQQMATSIGLSVLSMATGSPGASDLGGKLTEVMFTLPNSRTHETEADRMGVELAARAGFDPRAAVTLWQKMGAADGNAPPEFLSTHPSASTRIGELQQALQKVLPLYEQARGQAAKLEHHHHHH | not soluble
MGHHHHHHSHMLACCAIYSPVRCAFPYTETERRFTCKRRIFRIILTLCGRENMKIRALLVAMSVATVLTGCQNMDSNGLLSSGAEAFQAYSLSDAQVKTLSDQACQEMDSKATIAPANSEYAKRLTTIANALGNNINGQPVNYKVYMAKDVNAFAMANGCIRVYSGLMDMMTDNEVEAVIGHEMGHVALGHVKKGMQVALGTNAVRVAAASAGGIVGSLSQSQLGNLGEKLVNSQFSQRQEAEADDYSYDLLRQRGISPAGLATSFEKLAKLEEGRQSSMFDDHPASAERAQHIRDRMSADGIK | not soluble
MVWDVETAKRFLEIIKDEPIYYPALIALHTGMRAGEILSLKWCDVNFETRVISIVKSERKNRGLKTVNLKTKTSKRAVYMNDILYKELKNLYEITKPKPDDFVCPRLPTGNLTVNYLSRKFKKLVKKHNFPLIRFHDLRHTFATLMLSLGVNTKIVAEILGHSDIKLTADTYSHVLPTMQEEAMKEFVKLWKLEHHHHHH | not soluble
MADRKSDEGEDEYQHKEQMVTNRTSSFQPKSTEDSISKLAKMRAADRREEFMEERASFSAVKRGYQAGDDEEDDFTAEEEPPAKKPLTVAERLMAAMGHKAGEGLGKHGQGISEPIASSTQRGRTGLGHNAGKATARDFNEVWDETTEEKTVVERVEWMTDIEEEKRAEICEQLKDDKWMVIGKEKRTIDDETKFCSQQSITEMIEAKNVFDLMSDKDLREARTRANPYETIGSAFFQNRAAMKTANMDKIYDWILSRENTENDRFLLKNPLQESQTAENVDRSEDLFYFADVCAGPGGFSEYMLWRKGFYNAKGFGFTLAGKDDFKLFKFTASSQYFFETFYGTKDNGDVMDPVNIDSLEAHISRGTSGLGVHLMMADGGFSVEGQENIQEILSKRLYLCQLLVSLCIVREGGNFFCKLFDIFTPFSVGLIYLMRVCYQSVSLHKPHTSRPANSERYITCKGLRKEFANVVKEYLKRVNRKLDELKNKKSHDDVTDLMPLDVIEADQIFMDEIIRHNEFLANRQTLYLRKYQSFAKNQGQFDKDQGNLRDECLKYWQVPNKQRPRGGDRGNRHDNMQRLNPLQVYGKYCKKVCGESEIGNTFPDFSLNCLDAPLPNIPYEEYRFVPLASSGSPNLLIAAGDSAFIFRSGRFESISADHIRIPENTILLVDWAEEVVRGDGNRIKISSEPQVVRIIDAAVLFGDDVSNLPYEERMKAAEKFVAALKQTNRKVKKGWGHRAEMIKPHLKICAKTYSLAELDEFRSNLEKLEHNRELAVLFTEGEFTFRCQALRFTRIIKQEWRMGWSKSQQKPYAHSQEHQNAGSIPVELWAEKSIYSSFWDSVICLNKDKKKLMEAMEHTKGKCPIPSSIWSWKACILNLFPFFSVRTPYGPEKILNYPEPFEGKPTIAALKAQIENTDLIVKRVRN | not soluble
MAHHHHHHMAQSLVWRYLGPEDTHRCLDAPDVPSVRNLLVEIDDGMDGKLINCRNYNKGQLMIVLDMLAHLIVFTKTCSMSLEKVSTIVGIMLELHRESMSNQYTRSQSYHRLRELMLLHSVPRPPFSCGIFSVADVQHIDEYLLLSYFRHYKMYVYAFVPQRLANIHSVSVGHNHCVPPLGLPALTTATPRAEWIAKVEDTHRQMEERQMEVEDVRSAEYEEEWLKHRYLNGTHYSEGLREQLQSIKRDVSDKALNQLDLIEARLVEIEKKVEIVQQRQDGKGGKRKK | not soluble
MGSDKIHHHHHHMRSIADQYNVSTNSVSRRILALGKQTMPAYDGLPQTLCIDEFRSTSNQMSFITIDGQKHDIITILPGRQTNEIKQFFLNHYSLKNREQVTQVVMDLNAQYQTFIHYLFPNAKLIVDNFHLVQMALRALNQTRVQLMKKYHPNTPEYWVLKSYWRLYLMNYEALEKSQPQWFSHLRNRLTQEQLIWSGLNLSHEFENTYFTAHKLVEAFRSRDYAAFTATLDEVENVSPQLFTTIKTFIKNKKLIQNMTSSTLSNGPIEGVNRKIKQIKRTAYGYRNWKNFVFRIQIEFKIRLKKRNPVRK | not soluble
MRLFFSLLILLSFFARATEPVQVFTDDLGRKVTVPAHPKRIVSLHDLDITIPLIELGVPPVASHGRTRPDGSHFIRSGALLTGVDFDNSSIAFIGTADIDIEAIVAAKPDLIITEPTRNTPIERLEKIAPTVSIDHLKGGAPEIYRKLAELTGTQSQLAILERRYQAQINALKATLDSQKITVSVIQANQGKINVMHSYHSLGRVLRDAGFRFPPLIESIPEGGRMDVSAERLPELDADFVFATWRGDTGGKPQDELAAMEKVMPGWCQFLTACRSGRYVLISREEAISNSFASLGLMAAQIQSQIAGRPLPEAK | soluble
MAHHHHHHMKRRCDLLEVHSVAARPHKRGGTETTREHHFPLYSHPMFRAARHNANAVQDAVAEQSDRVDPGALDAALENMVTQLVEQRLSRHEAEGDTSPTLAKKNFIVTESELLALLAEATHATPLSPRPQQPPSAFPPSRPEAIAALAAAAAASSPPPQQGPFIPNQGYHTTHPPLQSNGDAERRAGPPPRTQASLFSGAASALGGDEPDELNVVSVGALQQAALRSLGHMDEQAAPRLPPLSESVASTTSGPTTKQRHPPTMPLYSLLPCLVASPGLTAASVLPAIVSSSLNPSPSSVTFREMDRCPGTGTGLVAQQSVDAQQLHQVPDAVFAAMDVLMDGNNCCMRRRKRLVATNGNKAESLSLNPRCLPGSGGGASGGSCFAFGCGSKGASLNRMYVPVAQNTLPAPPPPRTASEAKARRILEGQRRKQRLHDQQQHLVSNSFSLAGGGNTAPLSSSLVEFRSDTTSLPTEPFRWRHIDRSGSRTHSSAHPAPLPAASSVSRSAAVVVGTASTLPLTQEASLTFTLRDIAGEPVYMQAISAANRCWPASLI | not soluble
MRSAVTFFTFFLDKAEPISTRDTSSESIIPEQEKRRDDMRAVVLVPFLKQQRENRDAASAPAAPGRSVEAKLEEAKGLALAIDLEVTQGLVVPVNQPRPATLFGTGKIEEIGHLLDETNSGLVIVDHPLTPVQQRNLESSGTPRLSTAPVAAALEHHHHHH | not soluble
MKETIMNQKLTKRQAEVHTGRKGTAHRKKVVHTTAEDKKFQFSLKKLGVNNIPGIEEVNMFTHQGTVIHFNNPEVQASLAANTFTMTGHAETKQLTEMLLSIDHKPVLQMV | soluble
MSFETKPNYLLLTNPDTPLSVCTSPYYSPSGKTASIPSSEASKPEGTNGQWSHLPTGATYVTDEFSSEFQIQNGSTAAQSGNANNYADPLSHRRYFNNVNGYNHHQFYDTASQASVSSPATSVTSSLSPPDSLSNGHTTQRHHIGKAISFCKVCGDKASGYHYGVTSCEGCKGFFRRSIQRKIDYRCLKQQVCEIKRESRNRCQYCRFKKCLDSGMSKDSVRQMKFRNAMRDDKSPDSVFVPEISTLERQEEVDAVYEAVLRAHTTFSFYTDIKIRSIVARPFNVRINEDSKMNRLNAWQIYAHEIDVDIKEVVNFVKEIPKFNFINGNDKAVLLRKNAFPLYLLRIVRGMSNRGLMLRDGRLIDFKSLQLLYGSLADEMLAFANHIITIGCTDGDIALFIVLILCQPLTTEQQFSTNFKSQLQLLEMFDFYKKVLFQKMTCRIDGCDTYKQLMKCIHELNRLNELHKQQLNILRENLSFLNLPPLVVEMFQLSTLPLPVNHNNQENQYTPAPEHQSPQPQQPTPNQQQTPVHC | not soluble
MGSDKIHHHHHHAEVPVSDTIQQEAPAKVQITYDDPRDPFEGFNRAMWDFNYLYLDRYLYRPVAHGYNDYIPMPAKTGINNFVQNLEEPSSLVNNVLQGKWGWAANAGGRFTINSTVGLLGVIDVADMMGMSRKQDEFNEVLGYYGVPNGPYFMAPFAGPYVVRELASDWVDGLYFPLSELTMWQTIVKWGLKNLHSRASAIDQERLVDNALDPYAFVKDAYLQHMDYKVYDGNVPQKQDDDELLDQYMQELE | not soluble
MGSDKIHHHHHHMYKNSMVIGKFYPPHAGHAHLINTAAAQSENVSVLVLGNRFESITVADRTTWLAAEFEDIAGVHVIGMPNDCPEDYDSEEIWKAQSELMRLALKTHGVTEVEAVFSSEEYGAQLAQAFGAEHVLVDQSRTTFPISGTLCRDDLGSAWPFIIGPARQGLATRIILVGAESSGTSTLAKALTEHYRPRFPGITDVPEYGRDYTYEKFDALRAKMPEAVLEDMVWNEQDFGRIATRQNEMENAAADACPLVIADTDSLATTLWERFYIGERSYGSYLAASNLPPRDLYLITDHEGVEFEDDGWREGEHRRAEMTEWFKEALTAEGHSWILVSGDHERRKQTAVEIIELILMQRSKFTSPPWATRTVLEGAAV | not soluble
MVQSCSAYGCKNRYDKDKPVSFHKFPLTRPSLCKEWEAAVRRKNFKPTKYSSICSEHFTPDCFKRECNNKLLKENAVPTIFLCTEPHDKKEDLLEPQEQLPPPPLPPPVSQVDAAIGLLMPPLQTPVNLSVFCDHNYTVEDTMHQRKRIHQLEQQVEKLRKKLKTAQQRCRRQERQLEKLKEVVHFQKEKDDVSERGYVILPNDYFEIVEVPA | soluble
MPANKAKYKIIKQQVKNNILSARYKIGDRLPTESDFMAEFDVSRFTIRRAIDELVNENFVRRVQGNGMYIKDWHKVNKADEDLRTIAVITTHVADYIFPNIINAIDKVISDAGYSLILANTHNDPKRERDNLLRLLKLKPSAWIIEPTQSAVNRENLDLYQQIKKLDVPAVFINSSYPGIGFPCLKTDDRGSLSELTNYLFSIGHRRIMGVFQIDDIQGVERMKGFADAYLGHPYFSDRQTTIMYKSTDDYDEIFTRITNFYKNQTVDKPDAIICYNDQLAIALIDNLKEQGWKIPEDISIIGFDDYNISRYITPTLTTLSHPKSQMGRDAGKMILNLIDNKAVKSITYYPELVLRKSVMPI | not soluble
MSAFPVHAAFEKDFLVQLVVVDLNDSMDQVAEKVAYHCVNRRVAPREGVMRVRKHRSTELFPRDMTIAESGLNPTEVIDVVFEE | soluble
MVKVIASSVRKGNVLDVDGKLYVVLTAQNFHPGKGTPVTQVDMRRIVDGTKVSERWRTTEQVERAFVEDLNFQFLYEDGEGFHFMNPENYDQVVVDVETMGDQKAYLQEGMTCVLSIHEGNPLAVELPRHVTLEIVETEPVVKGQTASSSYKPAILSNGIRTMVPPHIDAGIRVVIATEDNSYVERAKN | not soluble
